The target of this assay is Melanocortin-1 receptor (MC-1R) (Mus musculus, UniProt Q01727). As to the kind of experiment: radioligand competition binding with [125I]-α-MSH on B16 cells.
Sequence of Melanocortin-1 receptor (MC-1R) (Q01727 whole entry): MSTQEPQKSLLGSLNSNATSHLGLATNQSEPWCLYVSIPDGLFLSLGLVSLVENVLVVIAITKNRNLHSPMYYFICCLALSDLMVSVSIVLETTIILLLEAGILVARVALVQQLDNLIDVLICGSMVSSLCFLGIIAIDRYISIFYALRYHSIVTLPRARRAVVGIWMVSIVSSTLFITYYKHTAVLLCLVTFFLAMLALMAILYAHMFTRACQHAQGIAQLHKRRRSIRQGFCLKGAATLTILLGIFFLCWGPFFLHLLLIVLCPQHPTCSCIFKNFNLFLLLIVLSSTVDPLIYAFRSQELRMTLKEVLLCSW

B1: ACTH(1-8) (peptide)
chain: SYSMEHFR
Regarding B1, the Kd (commonly a measure of binding affinity in units of concentration) was found to be 88 nM.

The values above are taken from paper PMC4586518 (2015).
